# Results taken from patent US11001824.
# Where a chain is given by its changes, count along the chain named. Names may count otherwise.
# T1: denatured bovine pancreatic Ribonuclease B, P61823
# T1 chain: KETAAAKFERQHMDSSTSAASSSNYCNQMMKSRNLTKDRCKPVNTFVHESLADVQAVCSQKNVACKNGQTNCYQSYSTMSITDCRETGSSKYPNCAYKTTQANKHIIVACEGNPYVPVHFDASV
# B1: wild-type PNGase F from Flavobacterium meningosepticum (protein)
# chain: GIPAPADNTVNIKTFDKVKNAFGDGLSQSAEGTFTFPADVTAVKTIKMFIKNECPNKTCDEWDRYANVYVKNKTTGEWYEIGRFITPYWVGTEKLPRGLEIDVTDFKSLLSGNTELKIYTETWLAKGREYSVDFDIVYGTPDYKYSAVVPVVQYNKSSIDGVPYGKAHTLALKKNIQLPTNTEKAYLRTTISGWGHAKPYDAGSRGCAEWCFRTHTIAINNSNTFQHQLGALGCSANPINNQSPGNWTPDRAGWCPGMAVPTRIDVLNNSLIGSTFSYEYKFQNWTNNGTNGDAFYAISSFVIAKSNTPISAPVVTNLDPHHHHHH
# B2: PNGase F D60A single point mutant (protein)
# chain: B1 chain with D63A
# Target: T1, denatured bovine pancreatic …
Protein,Deglycosylation Activity on RNase B (gel shift assay) [%],N-glycanase activity assay (gel shift)
B1,100,PNGase F completely de-glycosylates 1 µg of RNase B under the assay conditions described
B2,13.4,
